Experimental findings from paper PMC2577774 (Journal of molecular biology, 2008) are described below.

The series concerns the molecule itself. In words: native MS.

B1: gp3(Δ1–152), C-terminal truncate of P22 terminase small subunit gp3 lacking ten amino acids (domain or fragment, bacteriophage P22, UniProt P04893 1-152, looked up)
chain: MAAPKGNRFWEARSSHGRNPKFESPEALWAACCEYFEWVEANPLWEMKAFSYQGEVIQEPIAKMRAMTITGLTLFIDVTLETWRTYRLREDLSEVVTRAEQVIYDQKFSGAAADLLNANIIARDLGLKEQSQVEDVTPDKGDRDKRRSRIKE
The term stoichiometry N denotes the number of molecules, sites or subunits per partner or assembly. As to B1, the “stoichiometry N” value came out at 9.
